Measurements as given in patent publication US20150167004, “OLIGONUCLEOTIDE INHIBITORS OF DNA […] AND THEIR USE IN TREATING DISEASES” (METHEOR THERAPEUTICS CORPORATION, published 2015).

Assays:
DNMT1 [1] = target: T1, DNMT1 (Homo sapiens, UniProt P26358 P26358:1-1616); experiment: inhibition; tritiated methyl incorporation from SAM
DNMT1 [2] = target: T1, DNMT1; experiment: inhibition; 25 nM DNMT1, poly(dI:dC) substrate, 1 uM SAM; Table 5 gives 5.52 uM; details: hairpin
Method: (§1) DNA Methyltransferase 1 (DNMT1) was essentially assayed as described in Tollefsbol, T. O. and Hutchison III, C. A.: J. Biol. Chem. (1995), 270:18543-50 with the following modifications. Assay reaction was 5 μl volume, the DNA substrate was poly (dI:dC) 0.001 mg/ml and co-factor S-AdoMet at 1.0 μM; human DNMT1 was added at 25 nM. Reaction: S-adenosyl-L-[methyl-3H] methionine+DNA=S-adenosyl-L-homocysteine+DNA 5-[methyl-3H]-cytosine. S-AdoHCy was used as a positive control for the inhibition reaction.

DNMT3A [3] = target: T2, DNMT3A (Homo sapiens, UniProt Q9Y6K1 Q9Y6K1:1-912); experiment: inhibition; 25 nM DNMT3A, lambda DNA substrate, 1 uM SAM
T2 sequence (Q9Y6K1 whole entry, one chain of several): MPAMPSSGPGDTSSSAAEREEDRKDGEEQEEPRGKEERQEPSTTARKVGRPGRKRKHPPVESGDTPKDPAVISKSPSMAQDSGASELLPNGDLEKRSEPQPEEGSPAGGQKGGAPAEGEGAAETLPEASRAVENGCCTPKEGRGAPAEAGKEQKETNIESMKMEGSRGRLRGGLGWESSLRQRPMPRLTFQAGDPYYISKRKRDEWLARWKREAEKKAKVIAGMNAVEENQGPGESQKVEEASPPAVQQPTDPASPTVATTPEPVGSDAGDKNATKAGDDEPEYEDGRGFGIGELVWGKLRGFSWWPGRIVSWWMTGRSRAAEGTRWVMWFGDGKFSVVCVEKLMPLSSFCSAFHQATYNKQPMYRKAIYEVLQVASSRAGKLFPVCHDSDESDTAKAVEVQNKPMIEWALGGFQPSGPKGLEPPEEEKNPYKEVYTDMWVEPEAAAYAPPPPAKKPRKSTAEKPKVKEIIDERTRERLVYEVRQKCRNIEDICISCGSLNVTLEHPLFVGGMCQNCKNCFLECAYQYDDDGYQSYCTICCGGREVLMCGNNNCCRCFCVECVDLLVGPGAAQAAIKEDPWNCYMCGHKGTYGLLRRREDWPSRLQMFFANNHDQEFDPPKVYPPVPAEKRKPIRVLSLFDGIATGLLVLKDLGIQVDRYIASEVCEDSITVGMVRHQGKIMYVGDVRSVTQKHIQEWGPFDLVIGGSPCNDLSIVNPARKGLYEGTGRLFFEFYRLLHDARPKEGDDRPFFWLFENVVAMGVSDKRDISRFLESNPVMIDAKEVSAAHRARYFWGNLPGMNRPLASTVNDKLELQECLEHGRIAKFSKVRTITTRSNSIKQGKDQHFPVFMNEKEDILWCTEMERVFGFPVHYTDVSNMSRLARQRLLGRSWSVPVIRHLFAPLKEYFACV

DNMT3B (DNMT3b1) [4] = target: T3, DNMT3B (DNMT3b1) (Homo sapiens, UniProt Q9UBC3 Q9UBC3:1-853); experiment: inhibition; 25 nM DNMT3B, lambda DNA substrate, 1 uM SAM
DNMT3A [5] = target: T2, DNMT3A; experiment: inhibition; tritiated methyl incorporation from SAM
DNMT3B (DNMT3b1) [6] = target: T3, DNMT3B (DNMT3b1); experiment: as above
DNMT1 [7] = target: T1, DNMT1; experiment: inhibition; 25 nM DNMT1, poly(dI:dC) substrate, 1 uM SAM; table header cites SEQ 5 and 6 but oligo is MTC-424F/R; Table 5 gives 1.43 uM
Method: as §1

DNMT3B (DNMT3b1) [8] = target: T3, DNMT3B (DNMT3b1); experiment: inhibition; tritiated methyl incorporation from SAM; IC50 not estimable in Table 4
DNMT1 [9] = target: T1, DNMT1; experiment: inhibition; 25 nM DNMT1, poly(dI:dC) substrate, 1 uM SAM; Table 5 gives 348 nM; details: hairpin
Method: as §1

DNMT3A [10] = target: T2, DNMT3A; experiment: inhibition; 25 nM DNMT3A, lambda DNA substrate, 1 uM SAM; Table 5 gives 1.5 uM
DNMT3B (DNMT3b1) [11] = target: T3, DNMT3B (DNMT3b1); experiment: inhibition; 25 nM DNMT3B, lambda DNA substrate, 1 uM SAM; Table 5 gives 18.9 uM

T1 sequence (P26358 whole entry, one chain of several): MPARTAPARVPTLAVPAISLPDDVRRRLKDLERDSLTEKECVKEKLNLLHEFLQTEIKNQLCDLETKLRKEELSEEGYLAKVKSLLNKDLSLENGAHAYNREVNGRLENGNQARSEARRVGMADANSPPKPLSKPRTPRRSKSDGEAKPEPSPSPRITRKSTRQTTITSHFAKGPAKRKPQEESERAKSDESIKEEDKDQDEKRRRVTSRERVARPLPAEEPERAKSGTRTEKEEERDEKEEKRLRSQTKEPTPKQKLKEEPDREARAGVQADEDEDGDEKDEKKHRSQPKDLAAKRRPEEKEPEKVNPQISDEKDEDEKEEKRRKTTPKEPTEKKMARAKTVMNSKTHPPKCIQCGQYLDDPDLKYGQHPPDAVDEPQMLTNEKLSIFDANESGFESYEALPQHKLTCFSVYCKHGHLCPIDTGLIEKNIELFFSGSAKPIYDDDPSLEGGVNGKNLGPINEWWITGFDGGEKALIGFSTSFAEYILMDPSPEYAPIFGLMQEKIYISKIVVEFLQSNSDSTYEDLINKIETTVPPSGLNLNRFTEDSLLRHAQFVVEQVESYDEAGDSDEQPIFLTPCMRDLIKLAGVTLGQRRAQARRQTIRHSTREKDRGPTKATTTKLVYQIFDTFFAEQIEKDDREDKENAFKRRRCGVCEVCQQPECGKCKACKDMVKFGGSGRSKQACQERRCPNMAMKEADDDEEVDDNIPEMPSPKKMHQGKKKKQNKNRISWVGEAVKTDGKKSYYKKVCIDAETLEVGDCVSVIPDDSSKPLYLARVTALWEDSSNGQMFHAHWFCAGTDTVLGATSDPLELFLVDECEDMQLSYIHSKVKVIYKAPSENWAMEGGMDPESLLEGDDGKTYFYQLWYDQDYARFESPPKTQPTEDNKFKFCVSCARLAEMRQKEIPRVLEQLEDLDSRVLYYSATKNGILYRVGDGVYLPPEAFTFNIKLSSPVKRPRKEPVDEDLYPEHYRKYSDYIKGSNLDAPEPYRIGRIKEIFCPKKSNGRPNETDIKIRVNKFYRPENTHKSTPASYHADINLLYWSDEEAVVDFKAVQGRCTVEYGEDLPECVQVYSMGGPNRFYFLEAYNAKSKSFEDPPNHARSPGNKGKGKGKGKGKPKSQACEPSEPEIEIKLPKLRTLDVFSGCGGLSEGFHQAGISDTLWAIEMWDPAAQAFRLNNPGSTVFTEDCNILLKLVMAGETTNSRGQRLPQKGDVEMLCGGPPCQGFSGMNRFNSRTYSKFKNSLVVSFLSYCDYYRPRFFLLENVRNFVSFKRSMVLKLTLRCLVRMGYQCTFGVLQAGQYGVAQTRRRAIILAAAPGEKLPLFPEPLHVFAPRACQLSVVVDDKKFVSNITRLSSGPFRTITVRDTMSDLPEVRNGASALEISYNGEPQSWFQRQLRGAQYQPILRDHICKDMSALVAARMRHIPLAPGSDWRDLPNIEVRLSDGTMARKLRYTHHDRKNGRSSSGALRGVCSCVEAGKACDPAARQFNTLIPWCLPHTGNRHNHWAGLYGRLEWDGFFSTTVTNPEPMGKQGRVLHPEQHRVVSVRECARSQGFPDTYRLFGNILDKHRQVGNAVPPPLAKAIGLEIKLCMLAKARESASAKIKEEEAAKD

B1: MTC-433 (structured_DNA)
DNA: CCTATGCGATCGAGTTTTCTCGATCGCATAGG
modifications: 5mC at 7 and 11; deoxy-zebularine at 21 and 25; PS backbone [7,11,21,25]
B1 showed an IC50 (DNMT1 [1]; hairpin) of 4.22 nM.

B2: MTC-432 (structured_DNA)
DNA: B1 DNA
modifications: deoxy-zebularine at 21 and 25; PS backbone [21,25]
Binder B2 has an IC50 (DNMT1 [1]; hairpin) of 8.3 nM.

B3: MTC-422 (structured_DNA)
DNA: B1 DNA
modifications: 5-aza-5,6-dihydro-dC at 21 and 25; phosphodiester [21, 25 (5-aza-5,6-dihydro-dC)]
B3 showed an IC50 (DNMT1 [2]) of 1430 nM, an IC50 (DNMT3A [3]) of 5700 nM and an IC50 (DNMT3B (DNMT3b1) [4]) of 21300 nM.

B4: MTC-427 (MTC-423m) (structured_DNA)
DNA: B1 DNA
modifications: 5mC at 7 and 11; zebularine (pyrimidin-2-one ribonucleoside) at 21 and 25; phosphodiester [7,11,21,25]
B4 was tested, and the IC50 (DNMT3A [5]) was 1520 nM, the IC50 (DNMT1 [1]; hairpin) was 295 nM and the IC50 (DNMT3B (DNMT3b1) [6]) was 6200 nM.

B5: MTC-425 (MTC-422m) (structured_DNA)
DNA: B1 DNA
modifications: 5mC at 7 and 11; 5-aza-5,6-dihydro-dC at 21 and 25; phosphodiester [7,11,21,25]
Binder B5 has an IC50 (DNMT3A [5]) of 6690 nM, an IC50 (DNMT1 [1]; hairpin) of 504 nM and an IC50 (DNMT3B (DNMT3b1) [6]) of over 100000 nM.

B6: MTC-424 (dsDNA)
DNA 1: GTACATGCGCTCCAGA
DNA 2: TCTGGAGCGCATGTAC
modifications: 5-aza-5,6-dihydro-dC at 8 of F strand; phosphodiester [F strand: 8]
With B6 the IC50 (DNMT1 [7]) was 1940 nM, the IC50 (DNMT3A [3]) was 10200 nM and the IC50 (DNMT3B (DNMT3b1) [8]) was over 100000 nM.

B7: MTC-423 (structured_DNA)
DNA: B1 DNA
modifications: zebularine (pyrimidin-2-one ribonucleoside) at 21 and 25; phosphodiester [21,25]
B7 was tested, and the IC50 (DNMT1 [9]) was 363 nM, the IC50 (DNMT3A [10]) was 1600 nM and the IC50 (DNMT3B (DNMT3b1) [11]) was 17500 nM.

B8: MTC-429 (dsDNA)
DNA 1: GTACATGCGCTCCAGA
DNA 2: TCTGGAGCGCATGTAC
modifications: 5-aza-5,6-dihydro-dC at 8 of F strand; 5mC at 8 of R strand; phosphodiester [F strand: 8; R strand: 8]
B8 was tested, and the IC50 (DNMT3A [5]) was over 50000 nM and the IC50 (DNMT1 [1]) was 906 nM.
